Assay: label from the status in PepcDB records

Sequence | protein production
MNLGQWGEIMSWLCLLPISGGIVYNLLTVFTTSLFLARSLPKQDFQPGVSVLKPVRGLEKNLEANLRTIAQQNYPAYEVIYCVQDPQDPALPIVKKLQAEFGPEKIIVAVHQIEQGANGKVNNLLGGLKHAKYDILVISDSDTNLRPDYLATMVSPLGDRLVGCVTTPFKLTQAQTWYEGLELLSINADFMPSVLFAEVTGASKACLGPSIAIRRSTLTEIGGLESLADYLVEDFELGQRVWTGGLKMVLLPYVIDAGVNLDNWTNWWSHQLYWDQNTYLARPLPFLATIIIRAVPFAFLFTFCHWSEPWAWLILFITLATRYGTAAIVAQELKDGETIRYLPLLLLRDCFGLVFWALSFSQRQVLWRGITYRLTKGGKMIPASPIPKS | failed
MNLKQISAIIIVKNAKQTLLECLNSLKDFDEIILLNNESSDNTLNIANEFKKDFANLHIYHSAFIGFGALKNLALSYAKNDWILSIDADEVLENECIKELKNLELQEDNIIALSRKNLYKGEWIKACGWWPDYVWRIFNKNFTRFNDNLVHESLVLPSNAKKIYLKNGLRHYAFRDISHLIDKMQYYSSLWAKQNIHKKSGVLKANLRAFWTFFRNYFLKNGFLYGYKGFIISVCNALGTFFKYMKLYELQKQKPKTCALIITTYNQKERLKLVLDSVKNLAFLPNEVLIADDGSKEDTARLIEEYQKDFPCPLKHIWQEDEGFRAAKSRNNAIKASKSEYIILIDGDMILEKDFVKNHLEFAKRKVILQGSRVILNKNESEEILKNNNYSLAFNKKGFKNQRSIFLAKCVYKFSKLTKKFFKKSQLVKGSKTCNMSFYKSDFEAIEGFNEKFIGWGREDSEFVARFLFNDGVFKRLKFNALAYHIYHEENSKNMLEINHQIYLETIKNEKTTWRLEHHHHHH | failed
MNLLPKTREEFAQTDYWNEFFKKRGEKAFEWYGEYLELCDQIHKYIKPADRILMLGCGNSKLSMDMYDTGFRDITNIDISPIAVKKMLELNAKSRPEMKFLQMDATAMTFPDESFSVSLDKGTLDALFADDEPETRAVVENYFKEILRTMRNGGRYVGISLLQEHILNFLLDFLPKHNCMLRIVHCLGVEQANKEKNADDALTLPVFVVVATKFKSLPMPVLEFGFGNDKMQRFTTVSELNSAVSSVQKAALVCNGLARSNIAGHNEVIMDLHRPSEQTPRYTIHILDKPPARGLGKYAAFIVPQGREVEWIFSTPAGRKKLQDSANFQRLAVVTLHRDQVYSTLDEVKQELADSIKNLSPAGLTDQIPYLSLGSDVGKRETLICGFSKISGDFRIEEVEANGKTLRRLIFLSNQFVVQSEALVKTVKIKGKKDRKKIDFGYLACQHHLYMSVGVQLATTVQHPKRDVEKDVLVVGLGGGGLCSFLHAALPQARITAVEIDPIMLEVAEQYFELKQDKRFHVVIDDGLDFVERCRNEDIHFDAVLFDVDSKDLSLGMSCPPQSFLATKILQHIKEIIGPKGLFMLNLVCRDESLRTEALNNLHKVFPAVCSYKLEEDINEIIYCANDEKYKTVEQWKKNMGTAGRGLNSAVKETKLASEDALEVAEFLSELKI | failed
MNLNAKKTTTAVQSASENPKLRVMPKQLFSRTPVLAGGNAAAKREEIREYFHSTLDRYEQLFETLRGDAAYFKKPISLRHPLIFYLGHTATFFTNKLLLAGLITDRINPKMESMFAVGVDEMSWDDLDTTHYDWPSVEEVRAYRRRMRETVDRLIRETPLTLPIEWDSPWWTIMMGIEHERIHLETSSVLIRQHALEHVAPHPAWEPCRKSGPAPDNQLVKVPEGTVQLGKKKDDPFYGWDNEYGTHIADVAAFEAGKYLVSNQEFLEFVQADGYETESYWEEEGRAWLKHAGAKHPTFWIRRGGEWELRLMTKEISMPWDWPVEVNYHEAKAFCNWKAAVSGQPYRLPTEDEWYRLYEVAGLSEVPAAAPAMANIHLDHGASSHPVNEFAQGDFYDVVGNVWQWTETPIYPFDGFDVHPHYDDFTTPTFDGRHNLIKGGSWISCGNESLKNSRYAFRRHFFQHAGFRYVVGTAPAIQHGSHYETDKLLSEYAEFHYGDTYFDVPNFPKALAELAIAAMGDKPAHKALDLGCASGRAAFELARHFDEVTGVDFSARFIGQGVQLASQGVLRYTLADEGDLVLYRERTLAGLGLDGVRHKVAFYQGDACNLKPIYTGYDLILAANLIDRLYDPAKLLTSIHTRINSGGILLIASPYTWLEEHTKREAWIGGFKRDGESFGTLDGLKEILGAHFRLIQGPTEVPFVIRETRRKFQHTLSEVTIWEKTA | failed
MNLPNKLTVLRIFMIPIFIIIVSVPMDWGTISFGDTTLAVTQLVGAIIFAVASFTDWLDGKIARAQGLVTNFGKFADPLADKMLVMTAFIVLVGQGKVPAWIVAIIVCRELAVTGLRLLLVEHGEVMAAAWPGKVKTATQMVAIILLFINNIPFSALHLPLDQIMLYACLIFTIYSGVDYFAKNKDVFKGSM | failed
MNLPSRQWSSEVRQLVFIGFSAITAVVLSYSYVATVGLSEMLFAIVGAGLLLALVVILPVILLD | failed
MNLRPYQHTIVDFILTHPRCNLFVPMGLGKTVATLTALDVLLVVEDIAPILVIAPLRVAATTWPDEVAKFPHLRHLRVSVVVGSAAARRHALEQEADIYCINYDTLKWLVEFYKDRWPFRMVVADECSKLKGFRLRQGTRRARALATHVHTKVERYVGLTGTPAPNGLQDLWALMWMVDRGARLGTHFKAFIDRWFRAMQIGSDPHAVRFVPTPHASQEIQDKIRDICLSLDPHAYFDLCQPIVNTIRVALPAHAQRLYKAMEQDMFIALECGAEVEAFNAASKTIKCLQLANGALYTDDTRQAWEVVHDAKLEALHDIIEEAAGMPVLVAYHFKSDVARLQRAFPKGRALDKHPDTIRDWNAGNIPVLFAHPASAGHGLNLQDGGNILAFFGHWWDLEQYQQIIERIGPTRQAQAGHTRPVFIHHIVAAGTVDELVMARRESKREVQDLLLEAVKRRETGKPLTSQGAIAL | failed
MNLSQQNQHSNPITEAAKATFPYSVPMIAGFLFLGIAYGIYMKALGFGFLYPTLMALLIYAGSVEFIAAGALIAPFSPISVLLITLMISARQIFYGISMLEKYGIHIGKKRWYLITTLVDESFSLNYMAKIPPHLDKGWYMFFVSLYLHIYWVLGAAMGNLFGTVLPFNLKGVEFSMTALFLVIFAENWLKGKSHESSLLGLGIALVFLLIIGKEYFLIPTLIGIWLILTMRITKLETKLESLK | failed
MNLSSASSTEEKAVTTVLWGCELSQERRTWTFRPQLEGKQSCRLLLHTICLGEKAKEEMHRVEILPPANQEDKKMQPVTIASLQASVLPMVSMVGVQLSPPVTFQLRAGSGPVFLSGQERYEASDLTWEEEEEEEGEEEEEEEEDDEDEDADISLEEQSPVKQVKRLVPQKQASVAKKKKLEKEEEEIRASVRDKSPVKKAKATARAKKPGFKK | failed
MNLVGIVGTNSERSTNRKLLRFMAEHFAPQAAIEVLEIKDLPAFDEPENKTAPAAVTAFSKKIAAADGVIIATPEYNHTIPAPLGSALEWIAYTSRVLVNKPVMIVGCSLGALGTSRAQAHLRQILDAPELKARVMPGTEFFLGHSEHVLDDDFNLNNPEKVAELEEHFTEFQDFVIVTNQIVKQADTDRKLEHHHHHH | not failed
MNLVKFTLDKANSQAYSSEQTTTEVSNMTIENGVRVLAGSMVLLSVILTWFVHPNFLWLTVFVGVNLIQSAFTGFCPAAFFLKKLGLR | failed
MNLYADYEYYTSTYKGNLAKEEFEKSIMKASAYVRRITFGRADDNMEMEEVKLAACSVCDLIANDEKVRSKHSGRAVTSENTDGYSVSYESGGNGETADDLLKRNIFDTLLLYLEPTRLLYMGVELLEHHHHHH | not failed
MNLYSLLLSLITGCFLLAQGGTSFSSPVETEKSAVTAQSILEKADEIRFPQDSFQVNVAIRTAAPDHAEDLYRYQVLSKGNENSIVMITEPASERGQAILMKGRDLWVFMPSVSQPIRLSLSQRLTGQVANGDIARANFTGDYHPQLLRNESIDDEDYYVLELTGIDRSVTYQKVLLWVNQSNFRPYKAEFYSVSGRLLKTSRYENFDNILGEMRPTRIIMEDALKSGEVSVLDYSDMKLRDLPDKIFTKDYLKRLE | failed
MNMKATALTATTVAIASLLPSMGETNVQTANAEQLSNVKTGYVKVDQVALHTKDNANSSSIDTIRFNTKVNILETTNGWYKVSVNNKVGYVQKDSILLKNKLQSNNQYIVNANALNVRSEPNLESSILDVLPNGKFVTIQEEQGEWYKISHNGKAGYVQKAFVSNGSQPLVKGITVQNNTKYTVATPKLNVRSNASTSSALLGSLQNGTQLQVVETVGTWYKIRFGTGYGYVAKHYVVQNQTQSQTQTAQPTSIPAVFKFPTQGRISSTFDMRWEQMHYGIDIAAPGNVSIQAAAAGKVVKSYYSASYGNVVFIAHQINGKLYTTVYAHMKDRTVQAGDQVQAGQLVGHMGNTGHSYGQHLHFELHNGEWNFEKTNAVNPLPYLVRLEHHHHHH | failed

— a protein production outcome set (Wang et al. 2014)
